Patent US20180111967A1 (PIONEER HI BRED INTERNATIONAL, published 2018)

Molecular target: the molecule itself
Test: NMR solution structure (self-association, homodimer)
Method: For NMR data collection PIP-72Aa (SEQ ID NO: 2) was used at 0.7 mM formulated in 20 mM MES, pH 6.5, 100 mM NaCl, and 5 mM CaCl₂. D₂O and DSS (4,4-dimethyl-4-silapentane-1-sulfonic acid) were added to 10% and 50 μM final concentrations, respectively. This was then loaded into a 4 mm NMR tube (Shigemi). Data collection was at 25° C. on a Bruker 800 MHz spectrometer equipped with a cryo-probe (Monleon, D. et al. 2002, J Struct Funct Genomics 2: 93).
A NOESY peak list containing expected intra-residue, sequential and α-helical medium range NOE peaks was initially generated and manually edited by visual inspection of the simultaneous NOESY (100 ms mixing time) and 13C-edited aromatic NOESY (100 ms mixing time) spectra. NOEs were assigned using matching tolerances of 0.030, 0.025 and 0.40 ppm for indirect 1H, direct 1H and heavy atom 13C/15N, respectively. Subsequent manual peak picking was used to identify remaining, primarily long-range NOEs. In addition, backbone dihedral angle constraints were derived from chemical shifts (Shen, Y. et al. 2009 J Biomol NMR 44:213) for residues located in well-defined secondary structure elements. The initial structure was refined in explicit solvent using standard methods (Linge, J. P. et al. 2003 Proteins-Structure Function and Bioinformatics 50:496).

B1: PIP-72Aa (Pseudomonas Insecticidal Protein-72Aa) polypeptide of SEQ ID NO: 2 (other)
chain: MGITVTNNSSNPIEVAINHWGSDGDTSFFSVGNGKQETWDRSDSRGFVLSLKKNGAQHPYYVQASSKIEVDNNAVKDQGRLIEPLS
modifications: uniformly 15N,13C isotope labeled
notes: Insecticidal protein from Pseudomonas chlororaphis strain SS143D5; For NMR it was expressed in E. coli with an N-terminal His tag, which was removed by proteolysis, so untagged PIP-72Aa was used; also called IPD072Aa
Q: Does B1 bind?
A: binds
